Experimental data taken from PMC12759081, “S-phase PARylation of microprotein RSMC enhances the function of Sororin in sister chromatid cohesion” (The EMBO Journal, 2025).

Assays:
Conditions in all cases: both partners purified
[1] = target: T1, 6×His-3×Flag-PDS5B, Cy5-labelled (UniProt Q9NTI5 1-1447, Cy5 label); experiment: MST; Cy5-labelled PDS5B at 34 nM, partner in twofold dilutions; 25 °C, 50 mM Tris pH 7.4, 150 mM NaCl, 10% glycerol, 0.05% Tween-20; Monolith NT.115
T1 construct: PDS5B, cDNA in pFastBac1; primers run from the start codon to the stop codon; also called His-Flag-PDS5B; Cy5-labeled PDS5B; source: SF9 cells (baculovirus), purified (Ni2+ Sepharose); not shown: His6, N-terminal, kept; 3×Flag, N-terminal, kept
T1 sequence (looked up): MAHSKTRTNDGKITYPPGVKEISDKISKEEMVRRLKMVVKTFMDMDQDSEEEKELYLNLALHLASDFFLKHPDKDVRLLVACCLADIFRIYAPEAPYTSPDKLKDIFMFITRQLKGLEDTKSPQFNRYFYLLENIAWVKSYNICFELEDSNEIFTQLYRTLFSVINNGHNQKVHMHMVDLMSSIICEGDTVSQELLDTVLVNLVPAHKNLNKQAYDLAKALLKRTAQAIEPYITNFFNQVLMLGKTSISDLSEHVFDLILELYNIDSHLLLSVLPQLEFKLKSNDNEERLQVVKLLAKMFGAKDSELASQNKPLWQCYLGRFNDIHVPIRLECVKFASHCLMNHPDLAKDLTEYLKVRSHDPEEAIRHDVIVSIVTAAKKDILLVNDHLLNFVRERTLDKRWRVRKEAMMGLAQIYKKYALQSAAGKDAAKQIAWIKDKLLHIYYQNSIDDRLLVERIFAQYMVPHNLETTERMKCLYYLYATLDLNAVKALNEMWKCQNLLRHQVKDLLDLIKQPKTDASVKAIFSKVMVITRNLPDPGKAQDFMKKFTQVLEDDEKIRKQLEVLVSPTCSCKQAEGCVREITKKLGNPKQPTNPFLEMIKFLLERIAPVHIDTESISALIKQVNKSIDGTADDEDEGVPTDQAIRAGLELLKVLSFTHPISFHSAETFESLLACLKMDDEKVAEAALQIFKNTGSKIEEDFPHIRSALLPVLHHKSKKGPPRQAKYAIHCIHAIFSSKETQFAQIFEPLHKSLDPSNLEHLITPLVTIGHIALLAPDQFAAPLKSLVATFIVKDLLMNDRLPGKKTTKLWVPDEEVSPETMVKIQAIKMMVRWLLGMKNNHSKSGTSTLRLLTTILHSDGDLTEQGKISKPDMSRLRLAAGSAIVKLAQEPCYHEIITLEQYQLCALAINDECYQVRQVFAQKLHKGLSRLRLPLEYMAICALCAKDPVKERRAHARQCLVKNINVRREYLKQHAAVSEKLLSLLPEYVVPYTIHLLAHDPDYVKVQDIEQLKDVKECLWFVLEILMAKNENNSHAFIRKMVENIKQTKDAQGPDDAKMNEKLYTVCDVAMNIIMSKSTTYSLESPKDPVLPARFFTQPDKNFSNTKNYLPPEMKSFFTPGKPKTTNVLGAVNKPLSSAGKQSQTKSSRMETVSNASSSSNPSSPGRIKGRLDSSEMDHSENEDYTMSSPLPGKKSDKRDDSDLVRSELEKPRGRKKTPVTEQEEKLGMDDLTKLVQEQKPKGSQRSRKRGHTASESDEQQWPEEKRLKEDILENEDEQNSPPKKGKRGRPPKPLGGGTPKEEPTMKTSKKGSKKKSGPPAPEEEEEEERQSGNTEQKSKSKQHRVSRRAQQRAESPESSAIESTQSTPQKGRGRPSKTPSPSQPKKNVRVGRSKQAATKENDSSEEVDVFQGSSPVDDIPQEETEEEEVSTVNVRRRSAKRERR

[2] = target: T1, 6×His-3×Flag-PDS5B, Cy5-labelled; experiment: MST; competitive: 34 nM Cy5-PDS5B and Wapl dilutions combined 10 min at RT, then 17 nM Sororin added; 25 °C, 50 mM Tris pH 7.4, 150 mM NaCl, 10% glycerol, 0.05% Tween-20
[3] = target: T1, 6×His-3×Flag-PDS5B, Cy5-labelled; experiment: MST; competitive: 34 nM Cy5-PDS5B and Wapl dilutions combined 10 min at RT, then Sororin and RSMC added (17 nM each, 1:1 molar ratio); 25 °C, 50 mM Tris pH 7.4, 150 mM NaCl, 10% glycerol, 0.05% Tween-20

Kd [1]: ~4.7 µM | Kd of Wapl-PDS5B with Sororin added [2]: 25.3 µM | Kd of Wapl-PDS5B with Sororin and RSMC added (1:1) [3]: 50.1 µM
B1: Wapl (natural protein, UniProt Q7Z5K2 1-1190, looked up)
chain: MTSRFGKTYSRKGGNGSSKFDEVFSNKRTTLSTKWGETTFMAKLGQKRPNFKPDIQEIPKKPKVEEESTGDPFGFDSDDESLPVSSKNLAQVKCSSYSESSEAAQLEEVTSVLEANSKISHVVVEDTVVSDKCFPLEDTLLGKEKSTNRIVEDDASISSCNKLITSDKVENFHEEHEKNSHHIHKNADDSTKKPNAETTVASEIKETNDTWNSQFGKRPESPSEISPIKGSVRTGLFEWDNDFEDIRSEDCILSLDSDPLLEMKDDDFKNRLENLNEAIEEDIVQSVLRPTNCRTYCRANKTKSSQGASNFDKLMDGTSQALAKANSESSKDGLNQAKKGGVSCGTSFRGTVGRTRDYTVLHPSCLSVCNVTIQDTMERSMDEFTASTPADLGEAGRLRKKADIATSKTTTRFRPSNTKSKKDVKLEFFGFEDHETGGDEGGSGSSNYKIKYFGFDDLSESEDDEDDDCQVERKTSKKRTKTAPSPSLQPPPESNDNSQDSQSGTNNAENLDFTEDLPGVPESVKKPINKQGDKSKENTRKIFSGPKRSPTKAVYNARHWNHPDSEELPGPPVVKPQSVTVRLSSKEPNQKDDGVFKAPAPPSKVIKTVTIPTQPYQDIVTALKCRREDKELYTVVQHVKHFNDVVEFGENQEFTDDIEYLLSGLKSTQPLNTRCLSVISLATKCAMPSFRMHLRAHGMVAMVFKTLDDSQHHQNLSLCTAALMYILSRDRLNMDLDRASLDLMIRLLELEQDASSAKLLNEKDMNKIKEKIRRLCETVHNKHLDLENITTGHLAMETLLSLTSKRAGDWFKEELRLLGGLDHIVDKVKECVDHLSRDEDEEKLVASLWGAERCLRVLESVTVHNPENQSYLIAYKDSQLIVSSAKALQHCEELIQQYNRAEDSICLADSKPLPHQNVTNHVGKAVEDCMRAIIGVLLNLTNDNEWGSTKTGEQDGLIGTALNCVLQVPKYLPQEQRFDIRVLGLGLLINLVEYSARNRHCLVNMETSCSFDSSICSGEGDDSLRIGGQVHAVQALVQLFLERERAAQLAESKTDELIKDAPTTQHDKSGEWQETSGEIQWVSTEKTDGTEEKHKKEEEDEELDLNKALQHAGKHMEDCIVASYTALLLGCLCQESPINVTTVREYLPEGDFSIMTEMLKKFLSFMNLTCAVGTTGQKSISRVIEYLEHC
notes: Wapl, cohesin-releasing factor; primers run from the start codon to the stop codon
